In this test the target is Rho factor (E. coli transcription termination factor Rho) (E. coli, UniProt P0AG30 1-419). Briefly: SEC. A general note: SEC sorts molecules by how far they enter the pores of the column.
Chain of Rho factor (E. coli transcription termination factor Rho) (P0AG30 whole entry): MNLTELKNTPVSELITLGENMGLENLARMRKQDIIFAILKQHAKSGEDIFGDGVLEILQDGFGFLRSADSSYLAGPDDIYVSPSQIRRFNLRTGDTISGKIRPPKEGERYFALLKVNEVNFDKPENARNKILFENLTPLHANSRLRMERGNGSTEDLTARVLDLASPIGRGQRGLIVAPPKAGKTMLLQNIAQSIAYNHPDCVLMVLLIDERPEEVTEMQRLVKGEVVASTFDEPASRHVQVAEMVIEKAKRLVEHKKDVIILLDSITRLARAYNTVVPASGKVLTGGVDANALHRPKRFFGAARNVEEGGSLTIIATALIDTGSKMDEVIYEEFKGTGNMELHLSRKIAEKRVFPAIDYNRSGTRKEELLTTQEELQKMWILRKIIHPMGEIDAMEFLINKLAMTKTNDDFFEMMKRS

B1: Rof (Rho-off, also called YaeO) (natural protein, E. coli)
chain: MNDTYQPINCDDYDNLELACQHHLMLTLELKDGEKLQAKASDLVSRKNVEYLVVEAAGETRELRLDKITSFSHPEIGTVVVSES
As to B1, the binding result is “binds”.

The values are drawn from paper doi:10.1101/2023.09.01.555900 (bioRxiv, 2023).
